In US20210198377A1 (XDCEXPLORER SHANGHAI, published 2021):

Assays:
[1] = biological target: T1, cynomolgus monkey TPBG (full length, on cells) (cynomolgus monkey, UniProt Q4R8Y9 35-420); assay: FACS on CHO-K1-cTPBG cells
T1 construct: whole, on cells; On transfected CHO-K1 cells; also called cTPBG; CHO-K1-cTPBG
T1 sequence (looked up): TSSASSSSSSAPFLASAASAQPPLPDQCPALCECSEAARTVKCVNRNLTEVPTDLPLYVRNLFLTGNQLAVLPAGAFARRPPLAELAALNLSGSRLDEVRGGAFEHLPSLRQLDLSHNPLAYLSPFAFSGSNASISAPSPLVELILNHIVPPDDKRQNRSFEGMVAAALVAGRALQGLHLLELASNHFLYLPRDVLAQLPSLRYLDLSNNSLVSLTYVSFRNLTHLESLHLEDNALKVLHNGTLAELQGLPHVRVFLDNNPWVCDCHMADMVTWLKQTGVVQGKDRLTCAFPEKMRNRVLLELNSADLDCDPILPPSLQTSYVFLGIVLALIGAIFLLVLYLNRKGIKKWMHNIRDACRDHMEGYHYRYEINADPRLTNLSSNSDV
Description: The stable cell lines CHO-k1-hTPBG, CHO-k1-cTPBG, CHO-k1-mTPBG (i.e. the CHO-k1-hTPBG 3A2F1, CHO-k1-cTPBG 3F13G4 and CHO-k1-mTPBG 3A3 shown in table 7) and CHO-K1 cells were expanded to a 90% of confluency in T-75 cell culture flasks, the culture medium were removed, and cells were then rinsed twice with HBSS buffer (Hanks Balanced Salt Solution, purchased from Invitrogen) and lysed with enzyme-free cell dissociation buffer (Versene solution purchased from Life technology) and harvested. Harvested cells were rinsed with HBSS buffer twice and counted before diluting with HBSS buffer to 2×10⁶ cells /mL, and 10% goat serum blocking buffer was then added, wherein the percentage is the mass percentage. Cells were incubated on ice for 30 min, and then washed twice with HBSS buffer by centrifugation. The harvested cells were resuspended with FACS buffer (HBSS+1% BSA, wherein the percentage is mass percentage) to a concentration of 2×10⁶ cells /mL. 100 μL per well of the cells was aliquoted to 96-well FACS reaction plates, and 100 μL per well of test sample—the purified TPBG antibody obtaining from Embodiment 2 was added before incubating on ice for 2 h. The plate was washed with the FACS buffer twice by centrifugation, and 100 μL per well of fluorescence (Alexa 488) labeled secondary antibody (purchased from Invitrogen) was then added and incubated on ice for 1 h. The plate was washed with the FACS buffer for three times by centrifugation, follow by resuspending in 100 μL of fixation buffer (4% (v/v) paraformaldehyde). Cells were washed with FACS buffer twice after 10 min, follow by resuspending with 100 μL of FACS buffer. The results were measured and analyzed by FACS (FACS Calibur, purchased from BD). Data analysis was performed by software (CellQuest) to obtain mean fluorescence intensity (MFI) of the cells, follow by calculating EC50 value by software (GraphPad Prism) analysis and data fitting. The analysis results were shown in Table 8 and FIGS. 7-10, and data in FIGS. 7-10 show the mean fluorescence intensity (MFI) of cells.

human TPBG-hFc = biological target: T2, human TPBG-hFc (human, UniProt Q13641 32-355); assay: ELISA, coated human TPBG-hFc 1.0 ug/mL; antibody 0.002 nM
T2 construct: also called immunogen A; hFc tagged TPBG protein; not shown: The human IgG Fc fragment of the pCpC vector (Invitrogen V044-50) and any linker to it
T2 sequence: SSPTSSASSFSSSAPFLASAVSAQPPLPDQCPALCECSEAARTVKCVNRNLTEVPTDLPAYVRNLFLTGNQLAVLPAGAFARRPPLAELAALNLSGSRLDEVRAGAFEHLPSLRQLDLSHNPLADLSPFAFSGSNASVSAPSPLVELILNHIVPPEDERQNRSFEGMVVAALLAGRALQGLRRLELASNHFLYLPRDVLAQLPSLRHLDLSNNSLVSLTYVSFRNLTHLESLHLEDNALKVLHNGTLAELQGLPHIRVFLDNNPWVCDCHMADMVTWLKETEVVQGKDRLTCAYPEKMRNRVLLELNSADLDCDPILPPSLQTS
Experimental: The purified immunogen A (as for its method of preparation please refer to step 1 in Example 1) diluting with PBS to a final concentration of 1.0 μg/mL was aliquoted into a 96-well ELISA plate at 100 μL per well, and sealed with a parafilm and incubated at 4° C. overnight. The plate was washed twice with plate washing buffer (PBS containing 0.01% (v/v) Tween 20), and blocked with blocking buffer (PBS containing 0.01% (v/v) Tween 20 and 1% (w/w) BSA) at room temperature for 2 h. The blocking buffer was discarded, and 100 μL per well of the purified antibody obtained from Embodiment 2 was added. After incubating at 37° C. for 2 h, the plate was washed for three times with plate washing buffer (PBS containing 0.01% (v/v) Tween 20). HRP (horseradish peroxidase)-labeled secondary antibody (purchased from Sigma) was added and incubated at 37° C. for 2 h, and the plate was washed for three times using plate washing buffer (PBS containing 0.01% (v/v) Tween 20). 100 μL of TMB substrate was aliquoted into each well, incubated at room temperature for 30 min, and 100 μL of stop buffer (1.0N HCl) per well was subsequently added. A₄₅₀ₙₘ values were read using the ELISA plate reader (SpectraMax 384plus purchased from Molecular Device), and the results were shown in FIG. 6 and table 6. […] In Table 6 the IgG control herein is a mice IgG control, the data in the Table are OD₄₅₀ₘₙ values, and Blank means the OD₄₅₀ₘₙ value when there is only PBS buffer in the plate.

B1: 5G4H10G5 (antibody, V domains shown)
VH: EVQLVESGGDLVQPGGSLKLFCAASGFTFSTYGLSWVRQTPDKRLELVATITNNDGSAYYPDSVKGRFTISRDKAKNTLFLQMTSLKSEDTAMYYCARETGFGSSYLFDYWGQGTLVTVSA
VL: NIVMTQTPKFLLVSAGDRVTITCKASQSVSNDVAWYQQKPGQSPKLLIYFATNRYTGVPNRFTGSGYGTEFTFTISSVQAEDLAVYFCQQDYSSPTFGGGTKLEIK
notes: Mouse hybridoma antibody purified from culture supernatant; also called TPBG antibody; lead antibody
Question: Which EC50 [1] does the source give for B1 here?
Answer: The EC50 was 0.84 nM.

Question: What about the OD450nm (human TPBG-hFc) of the same binder?
Answer: The OD450nm was 0.1 OD450nm.

B2: 37H9C5G2 (antibody, V domains shown)
VH: QVQLQQSDAELVRPGASVKMSCKVSGYTFTDHTIHWMKQRPEQGLEWIGYIYPRDGSGTYNEKFKGKATLTADKSSSTAYMQLNSLTSEDSAVYFCARDGSSHYWYFDVWGTGTTVTVSS
VL: DIQMTQSPASLSASVGETVTITCRASEIIYNYLAWYQQKQGKSPQLLVYNAKTLAEGVPSRFSGSYSGTQFSLNINSLQSEDFGIYYCQHHHDTPLTFGAGTKLDLK
notes: as for B1
Question: Which EC50 [1] does the source give for B2 here?
Answer: Its EC50 is 0.62 nM.

Question: What about the OD450nm (human TPBG-hFc) of the same binder?
Answer: The OD450nm was 0.11 OD450nm.

B3: 39A11G5F2 (antibody, V domains shown)
VH: QVQLQQSGAELMKPGASMRLSCKATGYTFTGYWLEWIKRRPGHGLEWIGEILPGRGSTNYNEKFKGKATFTAETSSNTAYMQLTSLTTEDSAIYYCARGGRDFDNWGQGTTLTVSS
VL: DIQMTQSTSSLSASLGDRVTISCSASQGINNHLNWYQQKPDGTVKLLIYYTSSLHSGVPSRFSGSGSGTDYSLTISNLEPEDIAIYYCQQFSKLPYTFGGGTKVEMK
notes: as for B1
Question: Which EC50 [1] does the source give for B3 here?
Answer: The EC50 was 1.35 nM.

Question: And the OD450nm (human TPBG-hFc)?
Answer: The OD450nm was 0.11 OD450nm.

B4: 52C9E9F6 (antibody, V domains shown)
VH: QVQLQQSGAELMKPGASVKLSCKATGYTFTGYWIEWIKQRPGHGLEWIGEILPGRGSTDYNEKFKGKATFTADTSSNTAYMQLSSLTTEDSAIYYCTRGRLDFTYWGQGTLVTVSA
VL: DIQMTQTTSSLSASLGDRVTISCSASQGIRNYLNWYQQKPDGTVKLLIYYTSSLHSGVPSRFSGSGSGTDYSLTISNLEPEDIATYYCQQYSKVPWTFGGGTKLEIK
notes: as for B1
Question: Which EC50 [1] does the source give for B4 here?
Answer: Its EC50 is 1.54 nM.

Question: And the OD450nm (human TPBG-hFc)?
Answer: The OD450nm was 0.12 OD450nm.

B5: 28D4E6A9 (antibody, V domains shown)
VH: DVQLVESGGGLVRPGGSLKLSCAASGFTFSNYVMSWARQSPEKRLEWVAEISTGGSHTYYSDTVTGRFTISRDNAKKALYLEMSSLRSEDTAIYYCIMFYYGSSYSMDYWGQGTSVTVSS
VL: DIQMTQSTSSLSASLGDRITISCRASQDIRNYLNWYQQKPDGTVKLLIYHTSRLHSGVPSRFSGSGSGTDYSLTISNLEQEDIATYFCQQGDTLPLTFGAGTRLELK
notes: as for B1
Question: B5 was tested. Which EC50 [1] did it give?
Answer: The EC50 was 0.25 nM.

Question: And the OD450nm (human TPBG-hFc)?
Answer: The OD450nm was 0.14 OD450nm.

B6: 36A10D8B12 (antibody, V domains shown)
VH: DVQLQESGPGMVKPSQSLSLTCTVTGYSITSGYDWHWIRHFPGNKLEWMGYISYSGNTNYNPSLKSRISITHNTSKNHFFLRLNSVTTEDTATYYCARGYGNWDAMDYWGQGTSVTVSS
VL: DIVMTQSQKFMSTSVGDRVSVTCKASQIVDTNVAWYQQKPGQSPKALISSASYRYSGVPDRFTGSGSGTDFTLTISNVQSEDLAEYFCQQYNSYPLTFGAGTKLELT
notes: as for B1
Question: With B6 as the binder, how does the EC50 [1] read?
Answer: The EC50 was 0.6 nM.

Question: What about the OD450nm (human TPBG-hFc) of the same binder?
Answer: Its OD450nm is 0.18 OD450nm.

B7: 99E12C7H1 (antibody, V domains shown)
VH: QIQLVQSGPELKKPGETVKISCKPSGYTFTAYGLSWVKQAPGQGFQWMGWINTYSGVPTYTDDFKGRFAFSLETSAGTASLQITNLKNEDTATYFCARSSIPPFEYWGPGTTLTVSS
VL: SFVMTQSPKFLLVSVGDRVTITCKASQSVSNDVAWYQQKPGQPPRVLIYFASNRYTGVPDRFTGSGYGTDFTFTISTVQAEDLALYFCQQDYSSPWTFGGGTKLEIK
notes: as for B1
Question: Which EC50 [1] does the source give for B7 here?
Answer: The EC50 was 2.29 nM.

Question: What about the OD450nm (human TPBG-hFc) of the same binder?
Answer: Its OD450nm is 0.21 OD450nm.

B8: 103E2E9C2 (antibody, V domains shown)
VH: EVQLQQSGPVLVKPGASVKMSCEASGYSFIDYYMSWVKQSRGRSLEWIGVFNPYSGEIIYNQKFKGKATLTVDKSSSTAYMELSSLTSEDSGVYSCARLRISYYAIDYWGQGTSVAVSS
VL: ENVLTQSPAIMSASPGEKVTMTCRATSSVSSGHFHWYQQKSGASPKVWIYSTSNLASGVPARFSGSGSGTSFSLTISSVEAEDVATYFCQQYSGYPLTFGGGTKLEIK
notes: as for B1
Question: What does the source list for B8?
Answer: EC50 [1]: 0.83 nM; OD450nm (human TPBG-hFc): 0.14 OD450nm

B9: 106D5G3D10 (antibody, V domains shown)
VH: EVQLVESGGGLVKPGGSLKLSCAASGFTFSDYGMHWVRQAPEKGLEWVGYISSGTYVVYYADTVKGRFTISRDNAKNTLFLQMTSLRSEDTAIYYCSTYGSNPFDYWGQGTTLTVSS
VL: QLVLTQSPAIMSASPGEKVTITCSATSSVSSMHWFQQKPVTSPKLWIYSTSNLASGVPTRFSGSGSGTSYSLTISRMEAEDAATYYCQQRSGYPPIFTFGSGTKLEIK
notes: as for B1
Question: How did the EC50 [1] turn out when B9 was run?
Answer: The EC50 was 1.26 nM.

Question: And the OD450nm (human TPBG-hFc)?
Answer: The OD450nm was 0.16 OD450nm.

B10: 12B12C7C3 (antibody, V domains shown)
VH: DVQLVESGGGLVQPGGSRKLSCAASGFTFSNFGMHWVRQAPEKGLEWVAYISSGSTSFYYADTVKGRFTISRDNPKNTLFLQMTSLRSEDTAMYYCSRTNSLLRGFFDAWGAGTTVTVSS
VL: DIVLTQSPASLAVSLGQRATISCRASQSVSSSSYTYLHWYQQKPGQPPKLLIKSASNLESGVPARFSGTGSGTDFTLNIHPVEEEDTATYYCQHSWEIPLTFGAGTKLELK
notes: as for B1
Question: What does the source list for B10?
Answer: EC50 [1]: 0.59 nM; OD450nm (human TPBG-hFc): 0.13 OD450nm
